This note sets out measurements from US20260258115A1 (MAPP BIOPHARMACEUTICAL, published 2026).

For the assay, the target named is T1, RSV postfusion F (postF), subtype A (respiratory syncytial virus subtype A, UniProt P03420 26-513).
T1 construct: also called Postfusion subtype A; F deltaFP
The assay is described as follows: BLI.

B1: ADI-24813 (antibody, V domains shown)
VH: EVQLLESGGGLVQPGRSLRLSCAASGFTFDDYAMHWVRQAPGKGLEWVSGISWNSGSIGYADSVKGRFTISRDNAKNSLYLQMNSLRAEDTALYYCAKDGDSSSWRDSNFDYWGQGTLVTVSS
VL: QSVLTQPPSVSGAPGQRVTISCTGSSSNIGAGYDVHWYQQLPGTAPKLLIYGNSNRPSGVPDRFSGSKSGTSASLAITGLQAEDEADYYCQSYDSSLSGVVFGGGTKLTVL
notes: full-length IgG
For B1, the binding result is given as “no binding”.

B2: ADI-24822 (antibody, V domains shown)
VH: QVQLVESGGGLVKPGGSLRLSCAASGFTFSSYSMNWVRQAPGKGLEWVSSISSSSSYIYYADSVKGRFTISRDNAKNSLYLQMNSLRAEDTAVYYCARDSGLGSRGDAFDIWGQGTMVTVSS
VL: QSVLTQPPSVSGAPGQRVTISCTGSSSNIGAGYDVHWYQQLPGTAPKLLIYGNSNRPSGVPDRFSGSKSGTSASLAITGLQAEDEADYYCQSYDSSLSGYVFGTGTKVTVL
notes: full-length IgG
Regarding B2, the binding result is “no binding”.

B3: ADI-24843 (antibody, V domains shown)
VH: EVQLVESGPGLVKPSQTLSLTCTVSGGSISSGDYYWSWIRQPPGKGLEWIGYIYYSGSTYYNPSLKSRVTISVDTSKNQFSLKLSSVTAADTAVYYCARESIVGAVDYWGQGTLVTVSS
VL: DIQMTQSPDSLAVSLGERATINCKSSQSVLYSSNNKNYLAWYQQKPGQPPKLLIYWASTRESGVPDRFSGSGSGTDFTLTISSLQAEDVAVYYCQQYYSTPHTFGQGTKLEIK
notes: full-length IgG; also called Ab 405
B3: the binding result is on record as “no binding”.

B4: ADI-24830 (antibody, V domains shown)
VH: QVQLVQSGAEVKKPGSSVKVSCKASGGTFSSYAISWVRQAPGQGLEWMGGIIPIFGTANYAQKFQGRVTITADESTSTAYMELSSLRSEDTAVYYCARGGSMVRGLGFDPWGQGTLVTVSS
VL: not shown
notes: full-length IgG
B4: the binding result is listed as “no binding”.

B5: ADI-25503 (antibody, V domains shown)
VH: EVQLLESGAEVKKPGSSVKVSCKASGGTFSSYAISWVRQAPGQGLEWMGGIIPIFGTANYAQKFQGRVTITADESTSTAYMELSSLRSEDTAVYYCARSRYSGSYYYYYGMDVWGQGTTVTVSS
VL: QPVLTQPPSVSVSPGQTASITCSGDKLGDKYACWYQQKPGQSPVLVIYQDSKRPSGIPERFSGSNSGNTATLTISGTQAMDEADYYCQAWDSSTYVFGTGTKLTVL
notes: full-length IgG
In the case of B5, the binding result is on record as “no binding”.

B6: ADI-25514 (antibody, V domains shown)
VH: EVQLVQSGAEVKKPGSSVKVSCKASGGTFSSYAISWVRQAPGQGLEWMGGIIPIFGTANYAQKFQGRVTITADESTSTAYMELSSLRSEDTAVYYCARSRYSGSYYYYYGMDVWGQGTTVTVSS
VL: not shown
notes: full-length IgG
Turning to B6, the binding result is “no binding”.

B7: ADI-19468 (antibody, V domains shown)
VH: EVQLVESGPGLVKPSETLSLTCTVSGGSISSSSYYWGWIRQPPGKGLEWIGSIYYSGSTYYNPSLKSRVTISVDTSKNQFSLKLSSVTAADTAVYYCARRDGYNYGWFDPWGQGTLVTVSS
VL: NFMLTQPHSVSESPGKTVTISCTGSSGSIASNYVQWYQQRPGSAPTTVIYEDNQRPSGVPDRFSGSIDSSSNSASLTISGLKTEDEADYYCQSYDSSNVVFGGGTKVTVL
notes: full-length IgG
Consider B7, for which the binding result is “no binding”.

B8: ADI-19474 (antibody, V domains shown)
VH: QVQLVQSGAEVKKPGESLKISCKGSGYSFTSYWIGWVRQMPGKGLEWMGIIYPGDSDTRYSPSFQGQVTISADKSISTAYLQWSSLKASDTAMYYCARPYSGSYYAFDIWGQGTTVTVSS
VL: NFMLTQPHSVSESPGKTVTISCTRSSGSIASNYVQWYQQRPGSSPTTVIYEDNQRPSGVPDRFSGSIDSSSNSASLTISGLKTEDEADYYCQSYDSSNQVFGGGTKLTVL
notes: full-length IgG
B8: the binding result is “no binding”.

B9: ADI-19471 (antibody, V domains shown)
VH: EVQLVESGGGLVQPGGSLRLSCSASGFTFSSYAMHWVRQAPGKGLEYVSAISSNGGSTYYADSVKGRFTISRDNSKNTLYLQMSSLRAEDTAVYYCVKADQGSSGWFPDYWGQGTLVTVSS
VL: NFMLTQPHSVSESPGKTVTISCTRSSGSIASNYVQWYQQRPGSSPTTVIYEDNQRPSGVPDRFSGSIDSSSNSASLTISGLKTEDEADYYCQSYDSSNWVFGGGTKLTVL
notes: full-length IgG
As for B9, the binding result is “no binding”.

B10: ADI-19463 (antibody, V domains shown)
VH: QVQLQESGPGLVKPSQTLSLTCTVSGGSISSGDYYWSWIRQPPGKGLEWIGYIYYSGSTYYNPSLKSRVTISVDTSKNQFSLKLSSVTAADTAVYYCARDRLGIFDYWGQGTLVTVSS
VL: not shown
notes: full-length IgG
For B10, the binding result is listed as “no binding”.

B11: ADI-19473 (antibody, V domains shown)
VH: EVQLVESGAEVKKPGESLKISCKGSGYSFTSYWIGWVRQMPGKGLEWMGIIYPGDSDTRYSPSFQGQVTISADKSISTAYLQWSSLKASDTAMYYCARLIAAAGIDYWGQGTLVTVSS
VL: NFMLTQPHSVSESPGKTVTISCTRSSGSIASNYVQWYQQRPGSSPTTVIYEDNQRPSGVPDRFSGSIDSSSNSASLTISGLKTEDEADYYCQSYDSSNIWVFGGGTKVTVL
notes: full-length IgG
For the molecule B11, the binding result is “no binding”.

B12: ADI-19444 (antibody, V domains shown)
VH: QVQLVQSGAEVKKPGASVKVSCKASGYTFTSYGISWVRQAPGQGLEWMGWISAYNGNTNYAQKLQGRVTMTTDTSTSTAYMELRSLRSDDTAVYYCARDEALVGATFDYWGQGTLVTVSS
VL: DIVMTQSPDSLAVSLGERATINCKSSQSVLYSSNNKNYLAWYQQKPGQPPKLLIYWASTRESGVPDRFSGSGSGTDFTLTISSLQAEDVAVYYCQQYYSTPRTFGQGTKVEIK
notes: full-length IgG
On to B12, for which the binding result was “no binding”.

B13: ADI-19469 (antibody, V domains shown)
VH: QVQLQESGPGLVKPSETLSLTCAVSGYSISSGYYWGWIRQPPGKGLEWIGSIYHSGSTYYNPSLKSRVTISVDTSKNQFSLKLSSVTAADTAVYYCARWTVMYYFDYWGQGTLVTVSS
VL: EIVMTQSPATLSLSPGERATLSCRASQSVSSYLAWYQQKPGQAPRLLIYDASNRATGIPARFSGSGSGTDFTLTISSLEPEDFAVYYCQQRSNWPTFGGGTKLEIK
notes: full-length IgG
In the case of B13, the binding result is listed as “no binding”.

B14: ADI-24816 (antibody, V domains shown)
VH: QVQLVQSGAEVKKPGASVKVSCKASGYTFTSYDINWVRQATGQGLEWMGWMNPNSGNTGYAQKFQGRVTMTRNTSISTAYMELSSLRSEDTAVYYCARGIPGYYYYGMDVWGQGTTVTVSS
VL: not shown
notes: full-length IgG
B14: the binding result is listed as “no binding”.

B15: ADI-24824 (antibody, V domains shown)
VH: QVQLQESGPGLVKPSETLSLTCTVSGGSISSYYWSWIRQPPGKGLEWIGYIYYSGSTNYNPSLKSRVTISVDTSKNQFSLKLSSVTAADTAVYYCAISLYGDYRTDAFDIWGQGTTVTVSS
VL: EIVLTQSPSSFSASTGDRVTITCRASQGISSYLAWYQQKPGKAPKLLIYAASTLQSGVPSRFSGSGSGTDFTLTISCLQSEDFATYYCQQYYSYPLFGGGTKVEIK
As for B15, the binding result was “no binding”.

B16: ADI-24837 (antibody, V domains shown)
VH: QVQLQESGPGLVKPSETLSLTCTVSGGSISSYYWSWIRQPPGKGLEWIGYIYYSGSTNYNPSLKSRVTISVDTSKNQFSLKLSSVTAADTAVYYCARAIYYYDSSGYYYVGDAFDIWGQGTTVTVSS
VL: QSVLTQPPSVSAAPGQKVTISCSGSSSNIGNNYVSWYQQLPGTAPKLLIYENNKRPSGIPDRFSGSKSGTSATLGITGLQTGDEADYYCGTWDSSLSAGVFGGGTKLTVL
B16: the binding result is reported as “no binding”.

B17: ADI-24801 (antibody, V domains shown)
VH: QVQLVQSGAEVKKPGASVKVSCKASGYTFTSYGISWVRQAPGQGLEWMGWISAYNGNTNYAQKLQGRVTMTTDTSTSTAYMELRSLRSDDTAVYYCARVTARTFGGIRKGYYYGMDVWGQGTTVTVSS
VL: not shown
notes: full-length IgG; also called Ab 368
As to B17, the binding result was “no binding”.
